The record followed here is patent US20060193821, “Aptamers to the human IL-12 cytokine family and their use as autoimmune disease therapeutics” (published 2006).

The labels stand for the following.
B1: AMX91-G7 (ssRNA)
RNA: GGGAAAAGCGAAUCAUACACAAGACAUGACUGCAUGCUUCGGGAGUAUCUCGGUCCCGACGUUCGCUCCGCCAGAGACCAACCGAGAA
modifications: 2'-F C,U
B2: AMX91-G9 (ssRNA)
RNA: GGGAAAAGCGAAUCAUACACAAGAAUUGUGCUUACAACUUUCGUUGUACCGACGUGUCAGUUAUGCUCCGCCAGAGACCAACCGAGAA
modifications: 2'-F C,U
B3: AMX84-C10 (ssRNA)
RNA: GGGAAAAGCGAAUCAUACACAAGAGAUGUAUUCAGGCGGUCCGCAUUGAUGUCAGUUAUGCGUAGCUCCGCCAGAGACCAACCGAGAA
modifications: 2'-F C,U
B4: AMX91-D9 (ssRNA)
RNA: GGGAAAAGCGAAUCAUACACAAGAGUGUAUUACCCCCAACCCAGGGGGACCAUUCGCGUAACAAGCUCCGCCAGAGACCAACCGAGAA
modifications: 2'-F C,U
B5: AMX84-G11 (ssRNA)
RNA: GGGAAAAGCGAAUCAUACACAAGAGUGCUUCGUAUGUUGAAUACGACGUUCGCAGGACGAAUAUGCUCCGCCAGAGACCAACCGAGAA
modifications: 2'-F C,U
B6: AMX91-H7 (ssRNA)
RNA: GGGAAAAGCGAAUCAUACACAAGACUUAUCGCCUCAAGGGGGGUAAUAAACCCAGCGUGUGCAUGCUCCGCCAGAGACCAACCGAGAA
modifications: 2'-F C,U
B7: AMX91-H3 (ssRNA)
RNA: GGGAAAAGCGAAUCAUACACAAGACAUUGUGCUUUAUCACGUGGGUGAUAACGACGAAAGUUAUGCUCCGCCAGAGACCAACCGAGAA
modifications: 2'-F C,U
B8: AMX91-C12 (ssRNA)
RNA: GGGAAAAGCGAAUCAUACACAAGACGAUAGUAUGACCUUUUGAAAGGCUUCCCGAGCGGUGUUCGCUCCGCCAGAGACCAACCGAGAA
modifications: 2'-F C,U
B9: B10.min4 (ssRNA)
RNA: GGAGCAUACACAAGAAGUGCUUCAUGCGGCAAACUGCAUGACGUCGAAUAGAUAUGCUCC
modifications: 2'-F C,U
B10: A10.min5 (ssRNA)
RNA: GGAGCAUACACAAGAAGUUUUUUGUGCUCUGAGUACUCAGCGUCCGUAAGGGAUAUGCUCC
modifications: 2'-F C,U
B11: AMX84-F11 (ssRNA)
RNA: GGGAAAAGCGAAUCAUACACAAGAUGUGCUUGAGUUAAAUCUCAUCGUCCCCGUUUGGGGAUAUGCUCCGCCAGAGACCAACCGAGAA
modifications: 2'-F C,U
B12: AMX86-B10 (ssRNA)
RNA: GGGAAAAGCGAAUCAUACACAAGAGAACGAGUAUAUUUGCGCUGGCGGAGAAGUCUCUCGAAGGGAGCUCCGCCAGAGACCAACCGAGAA
modifications: 2'-F C and U, 2'-OH A and G
B13: AMX86-C5 (ssRNA)
RNA: GGGAAAAGCGAAUCAUACACAAGAGUUUUAUGUGGGUCCCGAUGAUUAACUUUAUUGGCGCAUUGCUCCGCCAGAGACCAACCGAGAA
modifications: 2'-F C and U, 2'-OH A and G
B14: AMX91-B8 (ssRNA)
RNA: GGGAAAAGCGAAUCAUACACAAGAAUCCUGGCUUCGCAUAGUGUAUGGGUAGUACGACAGCGCGUGCUCCGCCAGAGACCAACCGAGAA
modifications: 2'-F C and U, 2'-OH A and G
B15: AMX86-D6 (ssRNA)
RNA: GGGAAAAGCGAAUCAUACACAAGAUUAGGCGUCGUGACAAUAACUGGUCCACGAGCAUGUCAGUGCUCCGCCAGAGACCAACCGAGAA
modifications: 2'-F C and U, 2'-OH A and G
B16: AMX84-C11 (ssRNA)
RNA: GGGAAAAGCGAAUCAUACACAAGAAUGGUCGGAAUCUCUGGCGCCACGCUGAGUAUAGACGGAAGCUCCGCCAGAGACCAACCGAGAA
modifications: 2'-F C and U, 2'-OH A and G
B17: AMX91-E3 (ssRNA)
RNA: GGGAAAAGCGAAUCAUACACAAGAUUACUCCGUUAGUGUCAGUUGACGGAGGGAGCGUACUAUUGCUCCGCCAGAGACCAACCGAGAA
modifications: 2'-F C and U, 2'-OH A and G
B18: AMX91-G1 (ssRNA)
RNA: GGGAAAAGCGAAUCAUACACAAGAUAUGUGCCUGGGAUGGACGACAUCCCCUGUCUAAGGAUAUGCUCCGCCAGAGACCAACCGAGAA
modifications: 2'-F C and U, 2'-OH A and G
B19: AMX91-A6 (ssRNA)
RNA: GGGAAAAGCGAAUCAUACACAAGAUUGGCAAUGUGACCUUCAACCCUUUUCCCGAUGAACAGUGGCUCCGCCAGAGACCAACCGAGAA
modifications: 2'-F C and U, 2'-OH A and G
B20: AMX91-F11 (ssRNA)
RNA: GGGAAAAGCGAAUCAUACACAAGACGCGUCAGGUCCACGCUGAAAUUUAUUUUCGGCAGUGUAAGCUCCGCCAGAGACCAACCGAGAA
modifications: 2'-F C and U, 2'-OH A and G
B21: AMX86-D5 (ssRNA)
RNA: GGGAAAAGCGAAUCAUACACAAGAGAGGUAUGUGGUUUUGCGGAGCAACUCGUGUCAGCGGUCAGCUCCGCCAGAGACCAACCGAGAA
modifications: 2'-F C and U, 2'-OH A and G
B22: AMX84-A11 (ssRNA)
RNA: B21 RNA
modifications: 2'-F C and U, 2'-OH A and G
B23: AMX91-G11 (ssRNA)
RNA: GGGAAAAGCGAAUCAUACACAAGACUUAACAGUGCGGGGCGCAGUGUAUAGAUCCGCAAUGUGUGCUCCGCCAGAGACCAACCGAGAA
modifications: 2'-F C and U, 2'-OH A and G
B24: AMX91-H8 (ssRNA)
RNA: GGGAAAAGCGAAUCAUACACAAGAACGCAUAGUCGGAUUUACCGAUCAUUCUGUGCCUUCGUGACGCUCCGCCAGAGACCAACCGAGAA
modifications: 2'-F C and U, 2'-OH A and G

In the first data set the target is IL-12 (human, p35/p40 heterodimer) (Homo sapiens, UniProt P29459;P29460 SEQ:57-253,SEQ:23-328). The experiment in a line: filter; no significant binding.
Chain of IL-12 (human, p35/p40 heterodimer) (P29459 23-219, chain 1 of 2): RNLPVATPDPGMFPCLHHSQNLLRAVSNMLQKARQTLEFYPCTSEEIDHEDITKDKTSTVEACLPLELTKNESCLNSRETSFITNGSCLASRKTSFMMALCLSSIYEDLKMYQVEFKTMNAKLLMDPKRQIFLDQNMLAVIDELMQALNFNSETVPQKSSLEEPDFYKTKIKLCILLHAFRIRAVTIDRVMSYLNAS
Chain of IL-12 (human, p35/p40 heterodimer) (P29460 23-328, chain 2 of 2): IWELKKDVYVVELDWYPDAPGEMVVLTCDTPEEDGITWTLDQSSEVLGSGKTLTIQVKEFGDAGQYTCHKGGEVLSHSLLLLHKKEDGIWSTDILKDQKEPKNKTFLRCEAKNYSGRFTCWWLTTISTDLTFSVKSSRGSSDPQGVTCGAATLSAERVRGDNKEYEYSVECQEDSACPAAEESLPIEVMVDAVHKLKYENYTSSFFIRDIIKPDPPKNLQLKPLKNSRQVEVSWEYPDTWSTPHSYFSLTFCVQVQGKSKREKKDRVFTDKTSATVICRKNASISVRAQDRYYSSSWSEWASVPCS
Conditions: not given
For the molecule B1, the binding result is “no binding”.

With B2, the binding result is on record as “no binding”.

Consider B3, for which the binding result is “no binding”.

Consider B4, for which the binding result is recorded as “no binding”.

With B5, the binding result was “no binding”.

In the case of B6, the binding result is reported as “no binding”.

For B7, the binding result was “no binding”.

Turning to B8, the binding result was “no binding”.

The target in the next data set is T1, IL-23 (human, p19/p40 heterodimer) (Homo sapiens, UniProt Q9NPF7;P29460 SEQ:20-189,SEQ:23-328). The experiment in a line: cell_activity; TransAM STAT3. Particulars: tags: R&D Systems, carrier free. As for the experimental part: (§1) In summary, the cell-based assay was conducted by isolating the peripheral blood mononuclear cells (PBMCs) from whole blood using a Histopaque gradient (Sigma, St. Louis, Mo.). The PBMCs were cultured for 3 to 5 days at 37° C./5% CO₂ in Peripheral Blood Medium (Sigma) which contains PHA, supplemented with IL-2 (100 units/mL) (R&D Systems, Minneapolis, Minn.), to generate PHA Blasts. To test IL-23 aptamers, the PHA Blasts were washed twice with 1×PBS, then serum starved for four hours in RPMI, 0.20% FBS. After serum starvation, approximately 2 million cells were aliquotted into appropriately labeled eppendorf tubes. hIL-23 at a final constant concentration of 3 ng/mL (R&D Systems, Minneapolis, Minn.) was combined with a dilution series of various IL-23 aptamers as described in Example 1, and the cytokine/aptamer mixture was added to the aliquotted cells in a final volume of 100 μl and incubated at 37° C. for 10-12 minutes. The incubation reaction was stopped by adding 1 mL of ice-cold PBS with 1.5 mM Na₃VO₄. Cell lysates were made using the lysis buffer provided by the TransAM™ STAT 3 assay following the manufacturer's instructions. FIG. 20 depicts a flow summary of the protocol used for the cell based assay.
T1 sequence (Q9NPF7 20-189, chain 1 of 2): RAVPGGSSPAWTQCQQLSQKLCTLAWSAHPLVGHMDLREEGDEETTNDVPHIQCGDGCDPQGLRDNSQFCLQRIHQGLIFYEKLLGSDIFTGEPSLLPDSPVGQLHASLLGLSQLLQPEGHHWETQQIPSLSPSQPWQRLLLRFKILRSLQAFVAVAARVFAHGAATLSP
T1 sequence (P29460 23-328, chain 2 of 2): as the sequence (P29460 23-328, chain 2 of 2) above
(§2) Full length clones from the rRfY selection described in Example 1A, and select minimized rRfY clones that were described in Example 2A. 1, were tested using the TransAM™ STAT3 activation assay. Table 34 summarizes the cell based assay data for IL-23 full length aptamers generated from the rRfY selections described in Example 1A. 1, each compared to the activity of their respective parent (full length) clone.
The molecule B1 had an IC50 of 150 nM.

B2 came in with an IC50 of 50 nM.

B9 showed an IC50 of 500 nM.

In the case of B3, the IC50 amounted to 250 nM.

The molecule B4 yielded an IC50 of 150 nM.

Turning to B5, it took 250 nM to reach half-maximal inhibition (IC50).

Molecule B6 showed an IC50 of 50 nM.

Molecule B7 came in with an IC50 of 50 nM.

In turn, B8 registered an IC50 of 50 nM.

In turn, B10 registered an IC50 of 300 nM.

With B11, the IC50 was found to be 250 nM.

Another data set addresses T1, IL-23 (human, p19/p40 heterodimer). The data set can be described thus: filter; SHMCK, tRNA. Particulars: tags: R&D Systems, carrier free. As for the experimental part: Monitoring Progress of rRfY Selection. Dot blot binding assays were performed throughout the selections to monitor the protein binding affinity of the pools. Trace ³²P-labeled RNA was combined with a dilution series of h-IL-23 and incubated at room temperature for 30 minutes in 1×SHMCK (20 mM Hepes, 120 mM NaCl, 5 mM KCl, 1 mM MgCl₂, 1 mM CaCl₂, pH 7.4) plus 0.1 mg/mL tRNA for a final volume of 20 μL. The binding reactions were analyzed by nitrocellulose filtration using a Minifold I dot-blot, 96-well vacuum filtration manifold (Schleicher & Schuell, Keene, N.H.). A three-layer filtration medium was used, consisting (from top to bottom) of Protran nitrocellulose (Schleicher & Schuell), Hybond-P nylon (Amersham Biosciences) and GB002 gel blot paper (Schleicher & Schuell). RNA that is bound to protein is captured on the nitrocellulose filter, whereas the non-protein bound RNA is captured on the nylon filter. The gel blot paper was included simply as a supporting medium for the other filters. Following filtration, the filter layers were separated, dried and exposed on a phosphor screen (Amersham Biosciences, Piscataway, N.J.) and quantified using a Storm 860 Phosphorimager® blot imaging system (Amersham Biosciences).
When a significant positive ratio of binding of RNA in the presence of h-IL-23 versus in the absence of h-IL-23 was seen, the pools were cloned using a TOPO TA cloning kit (Invitrogen, Carlsbad, Calif.) according to the manufacturer's instructions. For the h-IL-23 and X-IL-23 selections, the Round 8 pool templates were cloned, and 32 individual clones from each selections were assayed in a 1-point dot blot screen (+/−75 nM h-IL-23, as well as a separate screen at +/−75 nM h-IL-12). For the PN-IL-23 selection, the Round 10 pool was cloned and sequenced, and 8 unique clones were assayed for protein binding in a 1-point dot blot screen (+/−200 nM h-IL-23 and a separate screen at +/−200 nM h-IL-12). Subsequently, the Round 10 PN-IL-23 pool was re-cloned for further sequences, as well as the R12 PN-IL-23 pool, and the clones were assayed for protein binding in a 1 point do blot screen (+/−100 nM h-IL-23 or +/−200 nM h-IL-12).
As to B1, the affinity, expressed as Kd, was 63.6 nM.

In turn, B2 came in with a Kd of 33 nM.

The molecule B3 registered a Kd of 94.3 nM.

On to B4, for which the dissociation constant (Kd) was found to be 44.6 nM.

Regarding B5, binding was put at a Kd of 291 nM.

B6 displayed a Kd of 71 nM.

The molecule B7 registered a Kd of 266 nM.

Consider B8, for which binding was characterised by a dissociation constant (Kd) of 30.7 nM.

The next data set has the same target. The data set can be described thus: cell_activity; TransAM STAT3, PHA blasts. Particulars: tags: R&D Systems. As for the experimental part: as §1, §2
For B12, the midpoint of inhibition, the IC50, lay at 800 nM.

Take B13: the midpoint of inhibition, the IC50, lay at 3000 nM.

With B14, the IC50 came to 450 nM.

Molecule B15 registered an IC50 of more than 5000 nM.

Turning to B16, the IC50 is 800 nM.

Regarding B17, the IC50 was more than 5000 nM.

Consider B18, for which half-maximal inhibition (IC50) was put at 2000 nM.

For B19, half-maximal inhibition (IC50) was put at 3000 nM.

B20 gave a concentration for half-maximal inhibition (IC50) of 5000 nM.

With B21, the IC50 is more than 5000 nM.

The molecule B22 came in with a 50% inhibitory concentration (IC50) of more than 5000 nM.

In turn, B23 yielded an IC50 of 3000 nM.

B24 displayed an IC50 of 3000 nM.

The term IC50 denotes the concentration that gives 50% inhibition. For orientation: Kd means the constant that tells how readily two partners part at equilibrium.
